The source of these data is publication PMC2186201.

This assay concerns the target human C3bi, bound to erythrocytes (EC3bi) (human) (UniProt P01024). Description: conglutinin-dependent hemagglutination.

B1: bovine conglutinin (natural protein)
chain: AEMTTFSQKILANACTLVMCSPLESGLPGHDGQDGRECPHGEKGDPGSPGPAGRAGRPGWVGPIGPKGDNGFVGEPGPKGDTGPRGPPGMPGPAGREGPSGKQGSMGPPGTPGPKGETGPKGGVGAPGIQGFPGPSGLKGEKGAPGETGAPGRAGVTGPSGAIGPQGPSGARGPPGLKGDRGDPGETGAKGESGLAEVNALKQRVTILDGHLRRFQNAFSQYKKAVLFPDGQAVGEKIFKTAGAVKSYSDAEQLCREAKGQLASPRSSAENEAVTQMVRAQEKNAYLSMNDISTEGRFTYPTGEILVYSNWADGEPNNSDEGQPENCVEIFPDGKWNDVPCSKQLLVICEF
Turning to B1, the conglutination (percent of activity) was 100%.
